Measurements taken from patent US20230279137A1 (EVOTEC INTERNATIONAL, published 2023).

T1: human type I IFN receptor on HEK-Blue IFN-α/β cells (human, UniProt P17181 28-557; P48551 27-515)
T1 sequence (looked up) 1: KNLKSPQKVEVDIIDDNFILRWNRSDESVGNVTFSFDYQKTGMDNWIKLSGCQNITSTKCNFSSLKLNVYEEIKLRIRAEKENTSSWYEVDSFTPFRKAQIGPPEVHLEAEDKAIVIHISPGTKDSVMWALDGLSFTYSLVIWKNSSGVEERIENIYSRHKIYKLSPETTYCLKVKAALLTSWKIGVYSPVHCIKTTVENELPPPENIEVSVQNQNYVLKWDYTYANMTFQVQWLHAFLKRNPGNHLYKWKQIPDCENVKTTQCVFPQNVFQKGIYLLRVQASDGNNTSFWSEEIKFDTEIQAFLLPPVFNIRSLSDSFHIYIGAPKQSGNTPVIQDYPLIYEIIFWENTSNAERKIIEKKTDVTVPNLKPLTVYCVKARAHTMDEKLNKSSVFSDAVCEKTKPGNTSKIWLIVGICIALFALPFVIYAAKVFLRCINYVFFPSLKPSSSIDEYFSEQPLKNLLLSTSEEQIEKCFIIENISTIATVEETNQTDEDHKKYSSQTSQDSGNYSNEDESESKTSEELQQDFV
T1 sequence (looked up) 2: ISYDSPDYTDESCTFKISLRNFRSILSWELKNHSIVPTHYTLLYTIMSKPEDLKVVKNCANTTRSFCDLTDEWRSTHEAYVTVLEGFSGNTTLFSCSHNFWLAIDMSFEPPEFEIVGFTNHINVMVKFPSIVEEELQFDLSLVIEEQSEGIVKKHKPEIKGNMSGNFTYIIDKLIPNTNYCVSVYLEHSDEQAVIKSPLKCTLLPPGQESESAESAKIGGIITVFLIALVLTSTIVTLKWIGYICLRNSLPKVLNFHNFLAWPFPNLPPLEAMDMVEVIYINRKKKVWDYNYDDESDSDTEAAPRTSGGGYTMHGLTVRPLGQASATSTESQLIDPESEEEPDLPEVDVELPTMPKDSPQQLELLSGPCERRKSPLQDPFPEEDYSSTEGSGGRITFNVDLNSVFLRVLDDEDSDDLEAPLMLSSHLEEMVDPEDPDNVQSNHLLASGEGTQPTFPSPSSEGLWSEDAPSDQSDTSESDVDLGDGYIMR


What was measured:
Assay in all cases: cell-based or functional assay
[1] = target: T1, human type I IFN receptor on HEK-Blue …
[2] = target: T2, human CD40 (human, UniProt P25942 21-277)
[3] = target: T2, human CD40; remark: listed apart in the source

T2 sequence (P25942 21-277): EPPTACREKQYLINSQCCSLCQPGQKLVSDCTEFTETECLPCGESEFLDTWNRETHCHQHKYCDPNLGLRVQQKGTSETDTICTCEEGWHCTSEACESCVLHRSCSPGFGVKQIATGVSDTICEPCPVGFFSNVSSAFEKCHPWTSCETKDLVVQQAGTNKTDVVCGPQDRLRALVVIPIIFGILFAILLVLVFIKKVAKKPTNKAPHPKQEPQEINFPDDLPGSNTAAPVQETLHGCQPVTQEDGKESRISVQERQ

Binder	IFNβ EC50 (ng/mL), SEAP reporter in HEK-Blue IFN-α/β cells [1] [ng/mL]	CD40 EC50 (ng/mL), NFκB-SEAP reporter in HEK-Blue CD40L cells [2] [ng/mL]	EC50 for agonistic CD40, HEK-Blue CD40L cells, experiment of FIG. 3 [3] [µg/mL]	EC50 on CD40 pathway, HEK-Blue CD40L cells [3] [µg/mL]	mean EC50 for agonistic CD40, HEK-Blue CD40L cells [3] [µg/mL]
IFA19 (antibody, human IgG2, kappa) light: DIQMTQSPSSVSASVGDRVTITCRASQGIYSWLAWYQQKPGKAPNLLIYTASTLQSGVPSRFSGSGSGTDFTLTISSLQPEDFATYYCQQANIFPLTFGGGTKVEIKRTVAAPSVFIFPPSDEQLKSGTASVVCLLNNFYPREAKVQWKVDNALQSGNSQESVTEQDSKDSTYSLSSTLTLSKADYEKHKVYACEVTHQGLSSPVTKSFNRGECSGGTSGSTSGTGSMSYNLLGFLQRSSNFQSQKLLWQLNGRLEYCLKDRMNFDIPEEIKQLQQFQKEDAALTIYEMLQNIFAIFRQDSSSTGWNETIVENLLANVYHQINHLKTVLEEKLEKEDFTRGKLMSSLHLKRYYGRILHYLKAKEYSHCAWTIVRVEILRNFYFINRLTGYLRN heavy: not shown	1.3	110	–	–	–
IFA12 (antibody, human IgG2, kappa) light: DIQMTQSPSSVSASVGDRVTITCRASQGIYSWLAWYQQKPGKAPNLLIYTASTLQSGVPSRFSGSGSGTDFTLTISSLQPEDFATYYCQQANIFPLTFGGGTKVEIKRTVAAPSVFIFPPSDEQLKSGTASVVCLLNNFYPREAKVQWKVDNALQSGNSQESVTEQDSKDSTYSLSSTLTLSKADYEKHKVYACEVTHQGLSSPVTKSFNRGECPAPAMSYNLLGFLQRSSNFQCQKLLWQLNGRLEYCLKDRMNFDIPEEIKQLQQFQKEDAALTIYEMLQNIFAIFRQDSSSTGWNETIVENLLANVYHQINHLKTVLEEKLEKEDFTRGKLMSSLHLKRYYGRILHYLKAKEYSHCAWTIVRVEILRNFYFINRLTGYLRN heavy: not shown	3.64	105	–	–	–
IFA13 (antibody, human IgG2, kappa) light: DIQMTQSPSSVSASVGDRVTITCRASQGIYSWLAWYQQKPGKAPNLLIYTASTLQSGVPSRFSGSGSGTDFTLTISSLQPEDFATYYCQQANIFPLTFGGGTKVEIKRTVAAPSVFIFPPSDEQLKSGTASVVCLLNNFYPREAKVQWKVDNALQSGNSQESVTEQDSKDSTYSLSSTLTLSKADYEKHKVYACEVTHQGLSSPVTKSFNRGECPAPAMSYNLLGFLQRSSNFQSQKLLWQLNGRLEYCLKDRMNFDIPEEIKQLQQFQKEDAALTIYEMLQNIFAIFRQDSSSTGWNETIVENLLANVYHQINHLKTVLEEKLEKEDFTRGKLMSSLHLKRYYGRILHYLKAKEYSHCAWTIVRVEILRNFYFINRLTGYLRN heavy: not shown	0.7	192	–	–	–
IFA8 (antibody, human IgG2, kappa) heavy: not shown light: DIQMTQSPSSVSASVGDRVTITCRASQGIYSWLAWYQQKPGKAPNLLIYTASTLQSGVPSRFSGSGSGTDFTLTISSLQPEDFATYYCQQANIFPLTFGGGTKVEIKRTVAAPSVFIFPPSDEQLKSGTASVVCLLNNFYPREAKVQWKVDNALQSGNSQESVTEQDSKDSTYSLSSTLTLSKADYEKHKVYACEVTHQGLSSPVTKSFNRGEC	2.9	39.7	–	–	–
IFA9 (antibody, human IgG2, kappa) heavy: not shown light: DIQMTQSPSSVSASVGDRVTITCRASQGIYSWLAWYQQKPGKAPNLLIYTASTLQSGVPSRFSGSGSGTDFTLTISSLQPEDFATYYCQQANIFPLTFGGGTKVEIKRTVAAPSVFIFPPSDEQLKSGTASVVCLLNNFYPREAKVQWKVDNALQSGNSQESVTEQDSKDSTYSLSSTLTLSKADYEKHKVYACEVTHQGLSSPVTKSFNRGEC	0.7	42.6	–	–	–
IFA11 (antibody, human IgG2, kappa) heavy: not shown light: DIQMTQSPSSVSASVGDRVTITCRASQGIYSWLAWYQQKPGKAPNLLIYTASTLQSGVPSRFSGSGSGTDFTLTISSLQPEDFATYYCQQANIFPLTFGGGTKVEIKRTVAAPSVFIFPPSDEQLKSGTASVVCLLNNFYPREAKVQWKVDNALQSGNSQESVTEQDSKDSTYSLSSTLTLSKADYEKHKVYACEVTHQGLSSPVTKSFNRGEC	1.78	42.8	–	–	–
agonistic anti-CD40 antibody CP870,893 (antibody, human IgG2, kappa) heavy: not shown light: DIQMTQSPSSVSASVGDRVTITCRASQGIYSWLAWYQQKPGKAPNLLIYTASTLQSGVPSRFSGSGSGTDFTLTISSLQPEDFATYYCQQANIFPLTFGGGTKVEIKRTVAAPSVFIFPPSDEQLKSGTASVVCLLNNFYPREAKVQWKVDNALQSGNSQESVTEQDSKDSTYSLSSTLTLSKADYEKHKVYACEVTHQGLSSPVTKSFNRGEC	–	–	0.057	0.03 to 0.08	0.048
IFA10 (antibody, human IgG2, kappa) heavy: not shown light: DIQMTQSPSSVSASVGDRVTITCRASQGIYSWLAWYQQKPGKAPNLLIYTASTLQSGVPSRFSGSGSGTDFTLTISSLQPEDFATYYCQQANIFPLTFGGGTKVEIKRTVAAPSVFIFPPSDEQLKSGTASVVCLLNNFYPREAKVQWKVDNALQSGNSQESVTEQDSKDSTYSLSSTLTLSKADYEKHKVYACEVTHQGLSSPVTKSFNRGEC	4.5	26.5	–	–	–
IFA20 (antibody, human IgG2, kappa) light: DIQMTQSPSSVSASVGDRVTITCRASQGIYSWLAWYQQKPGKAPNLLIYTASTLQSGVPSRFSGSGSGTDFTLTISSLQPEDFATYYCQQANIFPLTFGGGTKVEIKRTVAAPSVFIFPPSDEQLKSGTASVVCLLNNFYPREAKVQWKVDNALQSGNSQESVTEQDSKDSTYSLSSTLTLSKADYEKHKVYACEVTHQGLSSPVTKSFNRGECAEAAAKEAAAKAAEAAAKEAAAKAMSYNLLGFLQRSSNFQSQKLLWQLNGRLEYCLKDRMNFDIPEEIKQLQQFQKEDAALTIYEMLQNIFAIFRQDSSSTGWNETIVENLLANVYHQINHLKTVLEEKLEKEDFTRGKLMSSLHLKRYYGRILHYLKAKEYSHCAWTIVRVEILRNFYFINRLTGYLRN heavy: not shown	2.34	182	–	–	–
IFA1 (antibody, human IgG2, kappa) light: DIQMTQSPSSVSASVGDRVTITCRASQGIYSWLAWYQQKPGKAPNLLIYTASTLQSGVPSRFSGSGSGTDFTLTISSLQPEDFATYYCQQANIFPLTFGGGTKVEIKRTVAAPSVFIFPPSDEQLKSGTASVVCLLNNFYPREAKVQWKVDNALQSGNSQESVTEQDSKDSTYSLSSTLTLSKADYEKHKVYACEVTHQGLSSPVTKSFNRGECAEAAAKEAAAKAMSYNLLGFLQRSSNFQCQKLLWQLNGRLEYCLKDRMNFDIPEEIKQLQQFQKEDAALTIYEMLQNIFAIFRQDSSSTGWNETIVENLLANVYHQINHLKTVLEEKLEKEDFTRGKLMSSLHLKRYYGRILHYLKAKEYSHCAWTIVRVEILRNFYFINRLTGYLRN heavy: not shown	1.64	74.1	–	–	–
IFA2 (antibody, human IgG2, kappa) light: DIQMTQSPSSVSASVGDRVTITCRASQGIYSWLAWYQQKPGKAPNLLIYTASTLQSGVPSRFSGSGSGTDFTLTISSLQPEDFATYYCQQANIFPLTFGGGTKVEIKRTVAAPSVFIFPPSDEQLKSGTASVVCLLNNFYPREAKVQWKVDNALQSGNSQESVTEQDSKDSTYSLSSTLTLSKADYEKHKVYACEVTHQGLSSPVTKSFNRGECAEAAAKEAAAKAMSYNLLGFLQRSSNFQSQKLLWQLNGRLEYCLKDRMNFDIPEEIKQLQQFQKEDAALTIYEMLQNIFAIFRQDSSSTGWNETIVENLLANVYHQINHLKTVLEEKLEKEDFTRGKLMSSLHLKRYYGRILHYLKAKEYSHCAWTIVRVEILRNFYFINRLTGYLRN heavy: not shown	0.14	111	–	–	–
